Measured values taken from US20180312565A1.

Target: PD-L1 on PD-L1 expressing cells (IFNg-stimulated THP-1 cells; MDA-MB-231 cells) (UniProt Q9NZQ7)
Test: FACS, MDA-MB-231 cells, 1 µg/ml, other secondary antibody

PD-L1 on PD-L1 expressing cells (IFNg-stimulated THP-1 cells; MDA-MB-231 cells), sequence (Q9NZQ7 19-290 limits assumed): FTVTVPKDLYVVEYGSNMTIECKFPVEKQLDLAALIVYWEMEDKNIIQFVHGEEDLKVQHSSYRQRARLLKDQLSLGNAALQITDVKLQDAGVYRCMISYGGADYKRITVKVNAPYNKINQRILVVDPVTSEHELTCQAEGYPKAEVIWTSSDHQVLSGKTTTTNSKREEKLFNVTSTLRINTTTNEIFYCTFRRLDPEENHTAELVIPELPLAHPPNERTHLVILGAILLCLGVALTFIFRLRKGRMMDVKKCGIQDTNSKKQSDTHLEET

MFI: 610
Substance: mouse anti-PD-L1 antibody (R&D Systems, cat. no. MAB1561)
